{"source": "paper PMC4678811", "about": "“Assembly and dynamics of the U4/U6 di-snRNP by single-molecule FRET” (Nucleic Acids Research, 2015)", "key": {"[1]": {"system": "LSm2-LSm8 complex (Saccharomyces cerevisiae)", "assay": "EMSA", "conditions": "apparent; Hill 1.7; EMSA: 2 nM RNA, 10 mM K-HEPES pH 7.5, 100 mM KCl, 0.01% NP-40, 20 ug E. coli tRNA in 100 ul, on ice 60 min, 4% native gel 0.5X TBE 4 C; smFRET: 10 mM Tris-HCl …"}, "[2]": {"system": "Snu13 (Saccharomyces cerevisiae)", "assay": "EMSA", "conditions": "apparent; Hill 1; EMSA: 2 nM RNA, 10 mM K-HEPES pH 7.5, 100 mM KCl, 0.01% NP-40, 20 ug E. coli tRNA in 100 ul, on ice 60 min, 4% native gel 0.5X TBE 4 C; smFRET: 10 mM Tris-HCl …"}, "[3]": {"system": "Prp31 (Saccharomyces cerevisiae)", "assay": "EMSA", "conditions": "apparent; Hill 1.9; EMSA: 2 nM RNA, 10 mM K-HEPES pH 7.5, 100 mM KCl, 0.01% NP-40, 20 ug E. coli tRNA in 100 ul, on ice 60 min, 4% native gel 0.5X TBE 4 C; smFRET: 10 mM Tris-HCl …"}, "[4]": {"system": "Sm protein complex (SmB, D1, D2, D3, E, F, G) (Saccharomyces cerevisiae)", "assay": "EMSA", "conditions": "apparent; Hill 3.5; EMSA: 2 nM RNA, 10 mM K-HEPES pH 7.5, 100 mM KCl, 0.01% NP-40, 20 ug E. coli tRNA in 100 ul, on ice 60 min, 4% native gel 0.5X TBE 4 C; smFRET: 10 mM Tris-HCl …"}, "[5]": {"system": "Prp3/4 (Prp3-Prp4 complex) (Saccharomyces cerevisiae)", "assay": "EMSA", "conditions": "apparent; Hill 2.6; EMSA: 2 nM RNA, 10 mM K-HEPES pH 7.5, 100 mM KCl, 0.01% NP-40, 20 ug E. coli tRNA in 100 ul, on ice 60 min, 4% native gel 0.5X TBE 4 C; smFRET: 10 mM Tris-HCl …"}, "[6]": {"target": "the molecule itself", "assay": "native MS; minor peaks of the Mono-Q column after the main peak of the purified LSm2–LSm8 complex"}}, "note": "Values joined by “and” are separate entries in the source; they are usually repeats but may differ in a detail not shown here. Equal entries are not always repeated."}
{"molecule": "U4/U6 snRNA duplex (full length)", "values": [{"measurement": "Kd", "setting": "[1]", "result": 5, "unit": "nM"}, {"measurement": "Kd", "setting": "[2]", "result": 17, "unit": "nM"}, {"measurement": "Kd", "setting": "[3]", "result": 243, "unit": "nM"}, {"measurement": "Kd", "setting": "[4]", "result": 89, "unit": "nM"}, {"measurement": "Kd", "setting": "[5]", "result": 57, "unit": "nM"}]}
{"molecule": "LSm2–LSm8 complex (complex, Saccharomyces cerevisiae, LSm2, Saccharomyces cerevisiae, untagged; LSm3, Saccharomyces cerevisiae, untagged; LSm4, Saccharomyces cerevisiae, amino acids 1-106, untagged; LSm5, Saccharomyces cerevisiae; LSm6, Saccharomyces cerevisiae, untagged; LSm7, Saccharomyces cerevisiae, untagged; LSm8, Saccharomyces cerevisiae; Both tags are TEV-cleavable; also called LSm 2–8 complex; LSm complex; source: S. cerevisiae BCY123, …) chain 1: MLFFSFFKTLVDQEVVVELKNDIEIKGTLQSVDQFLNLKLDNISCTDEKKYPHLGSVRNIFIRGSTVRYVYLNKNMVDTNLLQDATRREVMTERK chain 2: METPLDLLKLNLDERVYIKLRGARTLVGTLQAFDSHCNIVLSDAVETIYQLNNEELSESERRCEMVFIRGDTVTLISTPSEDDDGAVEI chain 3: MLPLYLLTNAKGQQMQIELKNGEIIQGILTNVDNWMNLTLSNVTEYSEESAINSEDNAESSKAVKLNEIYIRGTFIKFIKLQDNIIDKVKQQINSNNNSNSNGPGH chain 4: MSLPEILPLEVIDKTINQKVLIVLQSNREFEGTLVGFDDFVNVILEDAVEWLIDPEDESRNEKVMQHHGRMLLSGNNIAILVPGGKKTPTEAL chain 5: MSGKASTEGSVTTEFLSDIIGKTVNVKLASGLLYSGRLESIDGFMNVALSSATEHYESNNNKLLNKFNSDVFLRGTQVMYISEQKI chain 6: MHQQHSKSENKPQQQRKKFEGPKREAILDLAKYKDSKIRVKLMGGKLVIGVLKGYDQLMNLVLDDTVEYMSNPDDENNTELISKNARKLGLTVIRGTILVSLSSAEGSDVLYMQK chain 7: MSATLKDYLNKRVVIIKVDGECLIASLNGFDKNTNLFITNVFNRISKEFICKAQLLRGSEIALVGLIDAENDDSLAPIDEKKVPMLKDTKNKIENEHVIWEKVYESKTK", "values": [{"measurement": "stoichiometry N", "setting": "[6]", "result": "2 and 3"}]}
